Laboratory results reported in US20150267232A1, “IN VIVO AND IN VITRO CARBENE INSERTION AND NITRENE TRANSFER REACTIONS CATALYZED BY HEME ENZYMES” (California Institute of Technology, priority 2012, published 2015).

Experiment: P450BM3 compilation plate screen (GC, cyclopropane peaks)
Type: biochemical
Conditions: P450BM3 variants; for ee (cis): (R,S)-(S,R), chiral β-CDX GC; for de: diastereomeric excess = ([cis] − [trans])/([cis] + [trans]); for Absolute activity: sum of the area of the cyclopropane peaks over the area of the internal standard

Molecule | ee (cis) | de | Absolute activity
CYP102A3: CYP102A3, related P450 from Bacillus subtilis (protein, UniProt O08336 1-1054, looked up) Bifunctional cytochrome …: MKQASAIPQPKTYGPLKNLPHLEKEQLSQSLWRIADELGPIFRFDFPGVSSVFVSGHNLVAEVCDEKRFDKNLGKGLQKVREFGGDGLFTSWTHEPNWQKAHRILLPSFSQKAMKGYHSMMLDIATQLIQKWSRLNPNEEIDVADDMTRLTLDTIGLCGFNYRFNSFYRDSQHPFITSMLRALKEAMNQSKRLGLQDKMMVKTKLQFQKDIEVMNSLVDRMIAERKANPDENIKDLLSLMLYAKDPVTGETLDDENIRYQIITFLIAGHETTSGLLSFAIYCLLTHPEKLKKAQEEADRVLTDDTPEYKQIQQLKYIRMVLNETLRLYPTAPAFSLYAKEDTVLGGEYPISKGQPVTVLIPKLHRDQNAWGPDAEDFRPERFEDPSSIPHHAYKPFGNGQRACIGMQFALQEATMVLGLVLKHFELINHTGYELKIKEALTIKPDDFKITVKPRKTAAINVQRKEQADIKAETKPKETKPKHGTPLLVLFGSNLGTAEGIAGELAAQGRQMGFTAETAPLDDYIGKLPEEGAVVIVTASYNGAPPDNAAGFVEWLKELEEGQLKGVSYAVFGCGNRSWASTYQRIPRLIDDMMKAKGASRLTAIGEGDAADDFESHRESWENRFWKETMDAFDINEIAQKEDRPSLSITFLSEATETPVAKAYGAFEGIVLENRELQTAASTRSTRHIELEIPAGKTYKEGDHIGILPKNSRELVQRVLSRFGLQSNHVIKVSGSAHMAHLPMDRPIKVVDLLSSYVELQEPASRLQLRELASYTVCPPHQKELEQLVSDDGIYKEQVLAKRLTMLDFLEDYPACEMPFERFLALLPSLKPRYYSISSSPKVHANIVSMTVGVVKASAWSGRGEYRGVASNYLAELNTGDAAACFIRTPQSGFQMPNDPETPMIMVGPGTGIAPFRGFIQARSVLKKEGSTLGEALLYFGCRRPDHDDLYREELDQAEQDGLVTIRRCYSRVENEPKGYVQHLLKQDTQKLMTLIEKGAHIYVCGDGSQMAPDVERTLRLAYEAEKAASQEESAVWLQKLQDQRRYVKDVWTGM | −8 | −74 | 0.004053
9-10A TS: V78A, P142S, T175I, A184V, S226R, H236Q, E252G, A290V, L353V, I366V, E442K (protein, listed as Bacillus megaterium, cytochrome P450NADPH-P-450 reductase precursor, cytochrome P450 (BM3), CYP102A1, V78A, P142S, T175I, A184V, S226R, H236Q, E252G, A290V, L353V, I366V, E442K) TIKEMPQPKTFGELKNLPLLNTDKPVQALMKIADELGEIFKFEAPGRVTRYLSSQRLIKEACDESRFDKNLSQALKFARDFAGDGLFTSWTHEKNWKKAHNILLPSFSQQAMKGYHAMMVDIAVQLVQKWERLNADEHIEVSEDMTRLTLDTIGLCGFNYRFNSFYRDQPHPFIISMVRALDEVMNKLQRANPDDPAYDENKRQFQEDIKVMNDLVDKIIADRKARGEQSDDLLTQMLNGKDPETGEPLDDGNIRYQIITFLIAGHETTSGLLSFALYFLVKNPHVLQKVAEEAARVLVDPVPSYKQVKQLKYVGMVLNEALRLWPTAPAFSLYAKEDTVLGGEYPLEKGDEVMVLIPQLHRDKTVWGDDVEEFRPERFENPSAIPQHAFKPFGNGQRACIGQQFALHEATLVLGMMLKHFDFEDHTNYELDIKETLTLKPKGFVVKAKSKKIPLGGIPSPSTEQSAKKVRKKAENAHNTPLLVLYGSNMGTAEGTARDLADIAMSKGFAPQVATLDSHAGNLPREGAVLIVTASYNGHPPDNAKQFVDWLDQASADEVKGVRYSVFGCGDKNWATTYQKVPAFIDETLAAKGAENIADRGEADASDDFEGTYEEWREHMWSDVAAYFNLDIENSEDNKSTLSLQFVDSAADMPLAKMHGAFSTNVVASKELQQPGSARSTRHLEIELPKEASYQEGDHLGVIPRNYEGIVNRVTARFGLDASQQIRLEAEEEKLAHLPLAKTVSVEELLQYVELQDPVTRTQLRAMAAKTVCPPHKVELEALLEKQAYKEQVLAKRLTMLELLEKYPACEMKFSEFIALLPSIRPRYYSISSSPRVDEKQASITVSVVSGEAWSGYGEYKGIASNYLAELQEGDTITCFISTPQSEFTLPKDPETPLIMVGPGTGVAPFRGFVQARKQLKEQGQSLGEAHLYFGCRSPHEDYLYQEELENAQSEGIITLHTAFSRMPNQPKTYVQHVMEQDGKKLIELLDQGAHFYICGDGSQMAPAVEATLMKSYADVHQVSEADARLWLQQLEEKGRYAKDVWAG | −54 | −75 | 0.00192
9-10A TS F87A: 9-10A TS + F87A (protein, listed as Bacillus megaterium, cytochrome P450NADPH-P-450 reductase precursor, cytochrome P450 (BM3), CYP102A1) TIKEMPQPKTFGELKNLPLLNTDKPVQALMKIADELGEIFKFEAPGRVTRYLSSQRLIKEACDESRFDKNLSQALKFARDFAGDGLATSWTHEKNWKKAHNILLPSFSQQAMKGYHAMMVDIAVQLVQKWERLNADEHIEVSEDMTRLTLDTIGLCGFNYRFNSFYRDQPHPFIISMVRALDEVMNKLQRANPDDPAYDENKRQFQEDIKVMNDLVDKIIADRKARGEQSDDLLTQMLNGKDPETGEPLDDGNIRYQIITFLIAGHETTSGLLSFALYFLVKNPHVLQKVAEEAARVLVDPVPSYKQVKQLKYVGMVLNEALRLWPTAPAFSLYAKEDTVLGGEYPLEKGDEVMVLIPQLHRDKTVWGDDVEEFRPERFENPSAIPQHAFKPFGNGQRACIGQQFALHEATLVLGMMLKHFDFEDHTNYELDIKETLTLKPKGFVVKAKSKKIPLGGIPSPSTEQSAKKVRKKAENAHNTPLLVLYGSNMGTAEGTARDLADIAMSKGFAPQVATLDSHAGNLPREGAVLIVTASYNGHPPDNAKQFVDWLDQASADEVKGVRYSVFGCGDKNWATTYQKVPAFIDETLAAKGAENIADRGEADASDDFEGTYEEWREHMWSDVAAYFNLDIENSEDNKSTLSLQFVDSAADMPLAKMHGAFSTNVVASKELQQPGSARSTRHLEIELPKEASYQEGDHLGVIPRNYEGIVNRVTARFGLDASQQIRLEAEEEKLAHLPLAKTVSVEELLQYVELQDPVTRTQLRAMAAKTVCPPHKVELEALLEKQAYKEQVLAKRLTMLELLEKYPACEMKFSEFIALLPSIRPRYYSISSSPRVDEKQASITVSVVSGEAWSGYGEYKGIASNYLAELQEGDTITCFISTPQSEFTLPKDPETPLIMVGPGTGVAPFRGFVQARKQLKEQGQSLGEAHLYFGCRSPHEDYLYQEELENAQSEGIITLHTAFSRMPNQPKTYVQHVMEQDGKKLIELLDQGAHFYICGDGSQMAPAVEATLMKSYADVHQVSEADARLWLQQLEEKGRYAKDVWAG | 5 | −60 | 0.001546
WT A328V: P450BM3 variant: A328V (protein, listed as Bacillus megaterium, cytochrome P450NADPH-P-450 reductase precursor, cytochrome P450 (BM3), CYP102A1) TIKEMPQPKTFGELKNLPLLNTDKPVQALMKIADELGEIFKFEAPGRVTRYLSSQRLIKEACDESRFDKNLSQALKFVRDFAGDGLFTSWTHEKNWKKAHNILLPSFSQQAMKGYHAMMVDIAVQLVQKWERLNADEHIEVPEDMTRLTLDTIGLCGFNYRFNSFYRDQPHPFITSMVRALDEAMNKLQRANPDDPAYDENKRQFQEDIKVMNDLVDKIIADRKASGEQSDDLLTHMLNGKDPETGEPLDDENIRYQIITFLIAGHETTSGLLSFALYFLVKNPHVLQKAAEEAARVLVDPVPSYKQVKQLKYVGMVLNEALRLWPTVPAFSLYAKEDTVLGGEYPLEKGDELMVLIPQLHRDKTIWGDDVEEFRPERFENPSAIPQHAFKPFGNGQRACIGQQFALHEATLVLGMMLKHFDFEDHTNYELDIKETLTLKPEGFVVKAKSKKIPLGGIPSPSTEQSAKKVRKKAENAHNTPLLVLYGSNMGTAEGTARDLADIAMSKGFAPQVATLDSHAGNLPREGAVLIVTASYNGHPPDNAKQFVDWLDQASADEVKGVRYSVFGCGDKNWATTYQKVPAFIDETLAAKGAENIADRGEADASDDFEGTYEEWREHMWSDVAAYFNLDIENSEDNKSTLSLQFVDSAADMPLAKMHGAFSTNVVASKELQQPGSARSTRHLEIELPKEASYQEGDHLGVIPRNYEGIVNRVTARFGLDASQQIRLEAEEEKLAHLPLAKTVSVEELLQYVELQDPVTRTQLRAMAAKTVCPPHKVELEALLEKQAYKEQVLAKRLTMLELLEKYPACEMKFSEFIALLPSIRPRYYSISSSPRVDEKQASITVSVVSGEAWSGYGEYKGIASNYLAELQEGDTITCFISTPQSEFTLPKDPETPLIMVGPGTGVAPFRGFVQARKQLKEQGQSLGEAHLYFGCRSPHEDYLYQEELENAQSEGIITLHTAFSRMPNQPKTYVQHVMEQDGKKLIELLDQGAHFYICGDGSQMAPAVEATLMKSYADVHQVSEADARLWLQQLEEKGRYAKDVWAG |  | −100 | 0.00083
